Laboratory results taken from the supplement of paper PMC12667976.

B1: library; numbered along this chain (parent)
chain: MATDAALRRLLRLHRTEIAVAVDSAFPLLHALADHDVVPEDKFQETLHLKEKEGCPQAFHALLSWLLTQDSTAILDFWRVLFKDYNLERYGRLQPILDSFPKDVDLSQPRKGRKPPAVPKALVPPPRLPTKRKASEEARAAAPAALTPRGTASPGSQLKAKPPKKPESSAEQQRLPLGNGIQTMSASVQRAVAMSSGDVPGARGAVEGILIQQVFESGGSKKCIQVGGEFYTPSKFEDSGSGKNKARSSSGPKPLVRAKGAQGAAPGGGEARLGQQGSVPAPLALPSDPQLHQKNEDECAVCRDGGELICCDGCPRAFHLACLSPPLREIPSGTWRCSSCLQATVQEVQPRAEEPRPQEPPVETPLPPGLRSAGEEVRGPPGEPLAGMDTTLVYKHLPAPPSAAPLPGLDSSALHPLLCVGPEGQQNLAPGARCGVCGDGTDVLRCTHCAAAFHWRCHFPAGTSRPGTGLRCRSCSGDVTPAPVEGVLAPSPARLAPGPAKDDTASHEPALHRDDLESLLSEHTFDGILQWAIQSMARPAAPFPS

Variants of: B1
Test: AIRE transcriptional activation functional score (insulin promoter-GFP; nonsense median 0, synonymous median 1) (normalised score); higher = higher AIRE activity (more reporter activation)
Conditions: with insulin promoter-GFP reporter in HEK293
Method: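 Deep mutational scan of full-length human AIRE (codon-optimized cDNA, DT-POPCode NNN libraries over three regions) integrated at a Bxb1 landing pad in HEK293 cells carrying an insulin core promoter-GFP reporter at a Flp-In site. Cells were sorted for the top 10% GFP about 14 days after transfection. Variant frequency log-ratios (select vs non-select, TileSeq) were rescaled so that the nonsense median is 0 and the synonymous median is 1, then averaged over biological replicates.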

AIRE transcriptional activation functional score of substitutions, site by site:
S278: G 1.34 | H 1.22 | E 0.763 | C 0.735 | D 0.859 | F 1 | A 0.851
Q275: L 1.03 | W 1.74 | V 1.01 | Y 1.35 | R 1.03 | G 0.894 | M 1.04 | F 1.11 | I 1.12 | E 1.26 | A 0.853 | N 1.01 | C 1.08 | D 1.33 | T 1.11 | H 1.01 | S 0.826 | P 1.19 | K 1.06
L273: F 0.977 | M 1.19 | H 0.264 | Q 1.72 | G 0.95 | R 0.646 | I 1.07 | C 0.741 | K 0.434 | E 0.817 | A 0.967 | V 1.02 | N 0.862 | T 0.77 | W 1.37 | S 0.975 | P 1.11 | Y 1.28 | D 0.505
G260: R 1.04 | T 1.26 | N 1.12 | L 1.29 | S 1.12 | K 0.721 | Y 1.14 | I 1.39 | W 1.18 | M 2.15 | F 0.949 | V 1.3 | H 1.19
Q262: R 0.909 | M 0.443 | S 0.84 | L 1.31 | G 1.33 | V 0.657 | Y 1.05 | A 1.2 | W 1.26 | F 1.61 | E 1.38 | N 1.13 | I 1.04 | D 1.13 | T 0.795 | K 0.987 | C 0.939 | H 0.819 | P 1.16
G269: E 1.1 | M 0.571 | H 0.996 | F 1.42 | Q 0.849 | S 1.2 | I 1.06 | A 1.39 | L 1.36 | T 1.51 | C 0.879 | K 1.07 | W 1.81 | N 0.306 | R 1.13 | P 1.44 | V 1.05 | D 0.649 | Y 0.676
Q276: Y 1.26 | D 1.11 | L 0.779 | C 1.26 | S 0.925 | R 0.822 | M 1 | W 0.869 | T 1.14 | K 0.954 | E 0.831 | I 1.83 | P 1.05 | N 1.52 | A 1.12 | F 1.05 | H 1.26 | V 0.873 | G 1.39
A264: D -0.0126 | V 1.07 | Y -0.0795 | I -1.66 | G 1.29 | R 1.05 | F 1 | C 0.799 | T 1.22 | Q 0.566 | H 1.68 | K 0.671 | L 1.18 | W 1.57 | S 1.18 | P 0.912 | M 1.01 | E 0.901
G267: N 0.868 | A 0.9 | C 1.11 | T 1.8 | D 0.595 | E 1.87 | R 0.84 | W 1.49 | Y 1.02 | L 0.938 | P 0.902 | S 0.894 | I 1.18 | V 1.12 | H 1.38
A261: C 1.11 | R 0.741 | N 0.506 | F 1.22 | V 1.13 | E 1.11 | D 0.731 | M 1.19 | S 0.631 | Q 1.17 | H 0.579 | I 0.612 | T 1.07 | L 0.746 | P 1.06 | G 1.01 | Y 1.12 | K 0.843 | W 1.33
E270: P 1.64 | V 1.36 | G 1.11 | R 0.723 | Q 1.15 | I 0.55 | D 1.37 | F 0.977 | M 1.2 | C 1.08 | H 1.56 | S 0.795 | N 1.01 | A 0.795 | K 0.735 | W 1.36 | T 0.69 | Y 1.38 | L 1.41
R272: G 0.842 | F 1.09 | H 0.444 | W 0.893 | A 0.71 | Y 0.677 | N 1.37 | V 0.896 | Q 0.947 | K 0.494 | C 1.3 | D 1.21 | I 1.08 | E 1.08 | S 1.02 | T 0.941 | M 1.31 | P 0.879 | L 1.01
G277: N 1.2 | Y 0.553 | C 1.38 | E 1.3 | I 1.24 | Q 0.825 | T 0.758 | K 1.22 | S 0.459 | F 1.23 | A 1.46 | P 0.526 | M 1.01 | L 0.959 | R 1.21 | V 1.1 | H 0.919
G268: H 0.564 | T 0.742 | V 1.02 | N 0.988 | Y 0.298 | K 0.831 | A 0.981 | W 1.62 | C 1.21 | M 1.12 | I 1.19 | S 1.09 | D 0.854 | P 0.869 | E 1.14 | F 1.38 | L 1.05 | R 1.09 | Q 0.515
P266: I 1.13 | F 1.38 | R 0.795 | V 0.93 | M 1.44 | K 1.19 | Y 1.06 | A 1.01 | Q 0.916 | C 1.09 | W 0.984 | E 0.486 | G 0.877 | N 0.956 | D 0.85 | L 0.925 | H 1.08 | S 0.824 | T 1.05
G263: M 0.957 | A 0.875 | F 0.212 | H 0.227 | L 0.99 | T 1.06 | V 1.25 | W 1.29 | S 1.23 | I -0.607 | E 1.42 | P 0.887 | D 1.31 | R 0.812 | Q -0.785 | K 1.27 | Y 1.34 | C 0.73
A271: D 1.22 | N 1.11 | R 0.714 | V 1.09 | C 1 | L 1.24 | E 1.1 | G 0.722 | H 1.66 | W 1.6 | P 1.02 | I 1.1 | K 1.1 | Y 0.83 | M 1.38 | T 0.847 | S 1.09 | F 0.885 | Q 0.693
G274: A 0.889 | Q 0.131 | N 1 | T 0.86 | P 0.734 | V 1.05 | L 1 | F 0.89 | D 1.14 | W 1.46 | H 1.4 | I 0.929 | K 1.24 | R 0.983 | C 0.942 | S 1.09 | Y 1.07 | E 0.611
A265: E 0.963 | G 0.964 | D 0.751 | C 0.821 | Y 1.25 | I 0.975 | N 1.54 | P 0.806 | M 1.55 | H 0.76 | Q 0.479 | R 0.748 | K 0.641 | V 1.11 | S 1.03 | W 0.598 | F 1.53 | T 1.01 | L 1.21
